Test results published in patent publication US20150167014A1, “MODULATION OF PLANT GROWTH BY VAS1 MUTATION” (THE SALK INSTITUTE FOR BIOLOGICAL STUDIES, priority 2013, published 2015).
Positions count from the first letter of the chain named. In names and notes the source's numbering stands.

Experiments:
[1] = substrate: N[C@@H](Cc1c[nH]cn1)C(=O)O; experiment: Steady-state kinetic assay of VAS1 I267M transaminase activity (rate of loss of IPA at 321 nm); format: biochemical, Arabidopsis thaliana; conditions: other: fixed 3-IPA 300 μM, variable L-His 0.1 to 10 mM, 0.4 μM VAS1 I267M, 100 μM PLP, pH 8.0, 23° C.
Experimental: (§1) FIG. 9A-B. Steady-state kinetic analyses of VAS1 I267M. […] Fixed concentration of L-His (10 mM) and variable concentrations of 3-IPA from 10 to 200 μM (A) Fixed concentration of 3-IPA (300 μM) and variable concentrations of L-His from 0.1 to 10 mM (B). Apparent KM, Vmax and kcat of VAS1 are shown above each curve and standard errors calculated from Graphpad Prism 5 software (www.graphpad.com).
(§2) The coding sequence of AtVAS1 was inserted between the NcoI and XhoI sites of the expression vector pHIS8 (“HIS8” disclosed as SEQ ID NO: 1) (a modified version of pET28a (+) containing an N-terminal 8-histidine tag (SEQ ID NO: 1)), which under the control of a T7 promoter. E. coli (BL21) cells harboring the AtVAS1 expression vector were grown in Terrific Broth at 37° C. until reaching an OD600 nm of 1.0 then cooled down to 18° C. and induced with 0.5 mM isopropyl-b-D-thiogalactoside (IPTG) and allowed to grow overnight at 18° C. for approximately 12-14 hr after. Cells were harvested by centrifugation and resuspended in lysis buffer (50 mM Tris-HCl, pH 8.0, 500 mM NaCl, 20 mM imidazole, 1% (v/v) Tween-20, 10% (v/v) glycerol, 10 mM 2-mercaptoethanol) containing lysozyme (0.5 mg/ml) at 4° C. for 1 hr and lysed by sonication. The lysate was centrifuged at 18,000 rpm for 45 min at 4° C. and then the supernatant were passed over Ni2+-NTA agarose (Qiagen). The AtVAS1 protein was eluted with lysate buffer supplemented with 250 mM imidazole after washed with wash buffer (lysis buffer without Tween-20 and glycerol). The N-terminal tag was cleaved by treatment with thrombin while dialyzing overnight in dialysis buffer (50 mM Tris-HCl, (pH8.0), 500 mM NaCl, 20 mM 2-mercaptoethanol). The thrombin and uncut AtVAS1 was removed by passing over Benzamidine Sepharose 4 Fast Flow (high sub) (GE Healthcare) and Ni2+-NTA agarose. AtVAS1 was further purified by size-exclusion chromatography using a Superdex 200 HR16/60 column. AtVAS1 fractions were combined, concentrated to approximately 12 mg ml-1 and frozen at −80° C. […]
(§3) For VAS1 I267M steady-state kinetic assays, 1 mL assay mixture contained 100 mM sodium phosphate buffer (pH 8.0), 0.4 μM recombinant VAS1 I 267M, 100 μM PLP and variable amounts of His (0.1 to 10 mM) and IPA (10 to 200 μM). The reactions were incubated at 23° C. and the OD321 nm were measured at 2-min, 5-min, 8-min, 10-min, 12-min and 15-min time points to monitor the linear rate of loss of IPA. Absorbance values were corrected to changes in IPA concentration based on an IPA standard curve. At 321 nm, absorbance from Trp was negligible. KM, kcat and Vmax were calculated by nonlinear regression analysis using GraphPad Prism 5 fits to the Michaelis-Menten equation.

[2] = substrate: O=C(O)C(=O)Cc1c[nH]c2ccccc12; experiment: as above; format: biochemical, Arabidopsis thaliana; conditions: other: fixed L-His 10 mM, variable 3-IPA 10 to 200 μM, 0.4 μM VAS1 I267M, 100 μM PLP, pH 8.0, 23° C.
Experimental: as §1, §2, §3

[3] = target: the molecule itself; experiment: X-ray crystal structure of VAS1•PLP complex
[4] = Amino donor test of VAS1 variants (19 amino acids, 3-IPA as amino acceptor); format: biochemical, Arabidopsis thaliana; conditions: 19 natural amino acids (except Trp) as amino donor
Experimental: VAS1 and its variants transaminase activity was monitor by HPLC-MS with an Agilent 1100 series LC-MSD instrument and an Agilent Zorbax Eclipse XDB-C18 (4.6×150 mm, […]) reversed-phase column. Chromatographic separations employed a flow rate of 0.5 mL min-1 and a linear gradient with initial and final mobile phases consisting of 95% water: 4.9%: acetonitrile: 0.1% formic acid (v/v/v), and 5% water: 94.9% acetonitrile: 0.1% formic acid (v/v/v), respectively. VAS1 mutants relative activity assays were conducted in a 200 μL volume containing 50 mM L-Met (with the exception of L-Trp), 10 mM IPA, 200 μM PLP and 10 μg of purified VAS1 or VAS1 variants protein in a reaction buffer consisting of 50 mM K2HPO4/KH2PO4 (pH 8.5). To further test the best amino donor of I267M and I267F mutant, one of 19 other amino acids (with the exception of L-Trp) was taking the place of L-Met. […] Relative specific activities were calculated after integration of the Trp peak (based on the absorbance at 254 nm) and the activity against Met and IPA was arbitrarily set to 100% for VAS1 variants M19V, M19I, M19F, I267V, 1267 M and I267F. […]

B1: Arabidopsis thaliana aminotransferase VAS1 (AtVAS1, NCBI Accession No. NP—178152, SEQ ID NO: 14), variant I267M (Ile267Met) (Arabidopsis thaliana; I267M) (protein)
chain: MGSFGMLSRRTLGTDMPVMAQIRSLMAELTNPMSLAQGVVHWQPPQKALEKVKELVWDPIISSYGPDEGLPELRQALLKKLREENKLTNSQVMVTAGANQAFVNLVITLCDAGDSVVMFEPYYFNSYMAFQMTGVTNIIVGPGQSDTLYPDADWLERTLSESKPTPKVVTVVNPGNPSGTYVPEPLLKRIAQICKDAGCWLIVDNTYEYFMYDGLKHCCVEGDHIVNVFSFSKTYGMMGWRLGYIAYSERLDGFATELVKIQDNIPMCAAIISQRLAVYALEEGSGWITERVKSLVKNRDIVKEALEPLGKENVKGGEGAIYLWAKLPEGHRDDFKVVRWLAHRHGVVVIPGCASGSPGYLRVSFGGLQEVEMRAAAARLRKGIEELLHHGMVE
notes: I267M by QuikChange mutagenesis
Molecule B1 has a Km [1] of 534 µM, a kcat [1] of 0.0392 s⁻¹ and a Km [2] of 62.4 µM. For the same molecule, the kcat [2] was 0.0447 s⁻¹.

B2: Arabidopsis thaliana aminotransferase VAS1 (enzyme)
chain: B1 chain with M267I
modifications: PLP (pyridoxal phosphate) bound as internal aldimine to the epsilon-amino group of Lys 233
notes: The protein crystallised as a symmetric homodimer with PLP; also called AtVAS1
B2: binds [3].

B3: VAS1: wild-type pyridoxalphosphate-dependent aminotransferase of Arabidopsis thaliana (protein)
chain: B1 chain with M267I
In the case of B3, the “aminotransferase activity / most efficient amino donor” value [4] is reported as “Met is the most suitable amino donor”.
